# Assay results reported in patent publication US20130122568.
# Residue numbers refer to the chain shown, from its start.
# Key:
# Test in all cases: cleavage_in_vitro
# [1] = biological target: T1, ScaI-HF H193A/S201F (Streptomyces caespitosus) (UniProt O52691); settings: NEB2, 37 C
# T1 sequence: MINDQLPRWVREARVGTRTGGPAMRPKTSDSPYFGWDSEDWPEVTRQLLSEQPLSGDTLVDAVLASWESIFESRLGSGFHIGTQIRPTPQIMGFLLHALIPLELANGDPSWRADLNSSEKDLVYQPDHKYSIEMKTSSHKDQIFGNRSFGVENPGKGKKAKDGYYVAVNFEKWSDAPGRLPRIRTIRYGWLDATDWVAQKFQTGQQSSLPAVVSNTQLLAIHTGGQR
# [2] = test system: T2, SphI (Streptomyces phaeochromogenes); settings: NEB1, 37 C
# T2 sequence: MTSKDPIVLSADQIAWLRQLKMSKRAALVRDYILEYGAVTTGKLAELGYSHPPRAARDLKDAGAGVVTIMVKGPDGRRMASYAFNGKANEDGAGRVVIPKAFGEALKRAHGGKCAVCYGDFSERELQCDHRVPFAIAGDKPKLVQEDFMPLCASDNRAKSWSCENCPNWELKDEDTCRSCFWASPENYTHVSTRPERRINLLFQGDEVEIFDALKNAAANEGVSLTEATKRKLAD
# [3] = test system: T3, BsmBI (Bacillus stearothermophilus); settings: NEB3, 55 C
# T3 sequence: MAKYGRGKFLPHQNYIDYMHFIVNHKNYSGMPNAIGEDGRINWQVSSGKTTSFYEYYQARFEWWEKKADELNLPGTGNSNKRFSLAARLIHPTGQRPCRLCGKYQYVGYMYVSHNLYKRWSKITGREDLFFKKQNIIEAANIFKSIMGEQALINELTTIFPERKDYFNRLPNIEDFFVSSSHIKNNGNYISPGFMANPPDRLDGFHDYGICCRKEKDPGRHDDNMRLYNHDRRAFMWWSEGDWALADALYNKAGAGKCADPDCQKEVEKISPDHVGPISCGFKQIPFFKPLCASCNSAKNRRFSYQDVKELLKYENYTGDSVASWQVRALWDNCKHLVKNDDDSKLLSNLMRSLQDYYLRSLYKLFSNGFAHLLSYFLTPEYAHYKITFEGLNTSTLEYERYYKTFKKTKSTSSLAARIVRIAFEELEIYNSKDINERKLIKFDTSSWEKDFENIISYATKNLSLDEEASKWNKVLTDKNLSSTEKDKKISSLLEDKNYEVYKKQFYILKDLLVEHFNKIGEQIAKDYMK
# [4] = test system: T4, SbfI-HF K251A (Streptomyces species Bf-61); settings: NEB1, 37 C
# T4 sequence: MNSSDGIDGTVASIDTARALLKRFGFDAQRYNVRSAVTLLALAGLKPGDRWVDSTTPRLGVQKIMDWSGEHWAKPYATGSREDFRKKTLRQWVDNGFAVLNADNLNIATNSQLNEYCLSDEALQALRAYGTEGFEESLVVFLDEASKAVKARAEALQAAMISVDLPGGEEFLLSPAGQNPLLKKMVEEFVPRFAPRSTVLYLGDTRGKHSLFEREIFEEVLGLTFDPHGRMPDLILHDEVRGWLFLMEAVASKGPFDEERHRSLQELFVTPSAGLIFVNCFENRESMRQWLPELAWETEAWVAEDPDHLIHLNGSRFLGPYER
# [5] = biological target: T5, BamHI-HF E163A/E167T (Bacillus amyloliquefaciens) (UniProt P23940); settings: NEB1, 37 C
# T5 sequence: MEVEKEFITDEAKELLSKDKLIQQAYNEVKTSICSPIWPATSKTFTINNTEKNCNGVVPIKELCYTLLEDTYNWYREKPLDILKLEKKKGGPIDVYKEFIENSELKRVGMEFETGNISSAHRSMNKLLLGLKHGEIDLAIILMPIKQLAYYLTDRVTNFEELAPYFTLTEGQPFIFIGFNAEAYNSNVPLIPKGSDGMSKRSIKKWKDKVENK
# [6] = test system: T6, SbfI (Streptomyces species Bf-61); settings: NEB1, 37 C
# T6 sequence: T4 sequence with A251K
# BstXI-HF N65A = settings: NEB2, 55 C
substance,measurement,setting,value
lambda phage DNA,activity (fidelity index),[1],1000
same,activity (fidelity index),[2],64
same,activity (fidelity index),[3],120
same,activity (fidelity index),[4],1000
same,activity (fidelity index),[5],> 4000
same,activity (fidelity index),[6],32
same,activity (fidelity index),BstXI-HF N65A,> 250
